Values joined by “and” are separate entries in the source; they are usually repeats but may differ in a detail not shown here. Identical values can stand only once.

The conditions of the data set: Thermus thermophilus; pH 8; 25 °C; GdnHCl; Fluorescence; Tris-HCl 50 mM; reversible: No; whole UniProt chain shown.

B1: Small ribosomal subunit protein bS6 wild type, P23370 (protein)
chain: MRRYEVNIVLNPNLDQSQLALEKEIIQRALENYGARVEKVEELGLRRLAYPIAKDPQGYFLWYQVEMPEDRVNDLARELRIRDNVRRVMVVKSQEPFLANA
For the protein B1, the denaturant m value is 2.54 kcal/mol/M and 2.76 kcal/mol/M and 2.7 kcal/mol/M.

These data come from FireProtDB (doi:10.1016/j.jmb.2005.05.056).
